Test results as given in patent US20250043302A1, “MUTATED HYDROXYPHENYLPYRUVATE DIOXYGENASE POLYPEPTIDE, AND CODING GENE AND USE THEREOF” (BEIJING DABEINONG BIOTECHNOLOGY CO., LTD., priority 2021, published 2025).

System: Arabidopsis thaliana T1 plants
Experiment: Isoxaflutole tolerance of transgenic Arabidopsis thaliana T1 plants (spray, bleached leaf area grade, damage score);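 for Scores: Weighted damage index from 0 to 100 where higher means more damage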
Type: in vivo
Conditions: for Grade 0 (classification and statistics of the grade of pesticide damage; number of plants) / Grade 1 (classification and statistics of the grade of pesticide damage; number of plants) / Grade 2 (classification and statistics of the grade of pesticide damage; number of plants) / Grade 3 (classification and statistics of the grade of pesticide damage; number of plants): 16 plants; for Classification and statistics of the grade of pesticide damage: Grade 0 / Classification and statistics of the grade of pesticide damage: Grade 1 / Classification and statistics of the grade of pesticide damage: Grade 2 / Classification and statistics of the grade of pesticide damage: Grade 3: number of plants
Summary of the method: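 T1 transformants selected by glufosinate; 18-day-old plants, with empty-vector and wild-type controls, sprayed with topramezone (25–200 g ai/ha), isoxaflutole (35–280 g ai/ha) or mesotrione (52.5–420 g ai/ha), water as 0×. Bleached leaf area fraction scored at 7 DAT as grades 0–3.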

[1] = isoxaflutole 140 g ai/ha (2x field concentration), Arabidopsis thaliana T1 plants
[2] = isoxaflutole 140 g ai/ha (2×), 7 DAT, Table 2
[3] = isoxaflutole 140 g ai/ha, number of plants in grade
[4] = isoxaflutole 280 g ai/ha (4x field concentration), Arabidopsis thaliana T1 plants
[5] = isoxaflutole 280 g ai/ha (4×), 7 DAT, Table 2
[6] = isoxaflutole 280 g ai/ha, number of plants in grade

B1: AsHPPD-02: nucleotide sequence encoding Avena sativa wild-type HPPD; vector DBN11727 (nucleic acid)
DNA: ATGCCACCTACTCCAGCTACAGCTACTGGTGCTGCTGCTGCTGCCGTTACTCCTGAGCACGCTGCCAGGTCATTCCCCAGGGTGGTTCGCGTGAACCCCAGATCTGATAGGTTCCCAGTTCTGAGCTTCCACCATGTTGAGCTGTGGTGCGCTGATGCTGCTTCTGCTGCTGGCAGGTTCTCTTTCGCTCTTGGTGCTCCACTCGCTGCTAGATCTGATCTGTCTACAGGAAATAGCGCTCATGCCTCACTCCTGCTTCGCTCAGGTGCTTTGGCCTTCCTCTTCACCGCTCCATATGCTCCCCCACCTCAGGAGGCTGCTACTGCTGCTGCTACAGCCTCCATTCCAAGCTTCTCAGCTGATGCCGCTAGAACCTTCGCTGCTGCTCATGGACTTGCCGTGAGGTCTGTTGGTGTTCGCGTGGCTGATGCTGCTGAGGCTTTCAGAGTTTCCGTTGCCGGCGGAGCTAGGCCAGCTTTCGCTCCTGCTGATTTGGGACATGGTTTCGGCCTGGCTGAGGTTGAGCTTTACGGTGACGTGGTTCTCCGCTTCGTGTCTTACCCAGATGAGACTGACCTGCCTTTCCTTCCCGGCTTCGAGAGAGTTTCCTCTCCTGGTGCCGTGGATTACGGCCTGACAAGGTTCGACCACGTGGTTGGAAACGTTCCCGAGATGGCTCCAGTGATCGATTACATGAAGGGCTTCCTTGGATTCCATGAGTTCGCCGAGTTCACTGCTGAGGACGTGGGAACCACTGAGTCCGGTTTGAACTCTGTGGTTCTCGCCAACAATTCTGAGGCTGTTTTGCTCCCTCTGAATGAGCCTGTGCATGGAACCAAGAGGAGAAGCCAGATTCAAACTTACCTGGAGTACCACGGTGGCCCTGGAGTTCAGCATATCGCCCTTGCTTCTAATGATGTGTTGCGCACACTCAGAGAGATGCGCGCCAGAACCCCCATGGGAGGTTTCGAGTTCATGGCCCCACCACAGGCTAAGTACTACGAGGGCGTTAGAAGGATTGCTGGAGACGTGTTGAGCGAGGAGCAGATCAAGGAGTGCCAAGAGCTGGGTGTTCTTGTGGATAGGGATGACCAGGGCGTTCTGCTTCAAATTTTCACTAAGCCAGTGGGCGACCGCCCTACATTCTTCCTTGAGATGATTCAAAGAATCGGCTGCATGGAGAAGGATGAGGTTGGACAGGAGTACCAAAAGGGCGGATGCGGTGGCTTCGGAAAGGGTAACTTCAGCGAGTTGTTCAAGTCAATCGAGGACTACGAGAAGAGCCTCGAGGTGAAGCAGTCAGTGGTTGCCCAAAAGTCCTGA
modifications: AsHPPD-02 Nucleotide Sequence
notes: vector DBN11727
- Resistance evaluation (Table 11, isoxaflutole 140 g ai/ha (2×)): Non-resistant
- Classification and statistics of the grade of pesticide damage Grade 0 (Table 11, isoxaflutole 140 g ai/ha (2×), number of plants at grade 0): 0
- Classification and statistics of the grade of pesticide damage Grade 1 (Table 11, isoxaflutole 140 g ai/ha (2×), number of plants at grade 1): 1
- Classification and statistics of the grade of pesticide damage Grade 2 (Table 11, isoxaflutole 140 g ai/ha (2×), number of plants at grade 2): 4
- Classification and statistics of the grade of pesticide damage Grade 3 (Table 11, isoxaflutole 140 g ai/ha (2×), number of plants at grade 3): 11
- Scores (Table 11, isoxaflutole 140 g ai/ha (2×), pesticide damage score): 88
- Resistance evaluation (Table 11, isoxaflutole 280 g ai/ha (4×)): Non-resistant
- Classification and statistics of the grade of pesticide damage Grade 0 (Table 11, isoxaflutole 280 g ai/ha (4×), number of plants at grade 0): 0
- Classification and statistics of the grade of pesticide damage Grade 1 (Table 11, isoxaflutole 280 g ai/ha (4×), number of plants at grade 1): 0
- Classification and statistics of the grade of pesticide damage Grade 2 (Table 11, isoxaflutole 280 g ai/ha (4×), number of plants at grade 2): 0
- Classification and statistics of the grade of pesticide damage Grade 3 (Table 11, isoxaflutole 280 g ai/ha (4×), number of plants at grade 3): 16
- Scores (Table 11, isoxaflutole 280 g ai/ha (4×), pesticide damage score): 100
- tolerance to isoxaflutole (in words) (in vivo): no tolerance
- Resistance evaluation (isoxaflutole 140 g ai/ha): Non-resistant
- Scores (isoxaflutole 140 g ai/ha): 88
- Resistance evaluation [1]: Non-resistant
- Scores [1]: 88
- Grade 0 (classification and statistics of the grade of pesticide damage; number of plants) [1]: 0
- Grade 1 (classification and statistics of the grade of pesticide damage; number of plants) [1]: 1
- Grade 2 (classification and statistics of the grade of pesticide damage; number of plants) [1]: 4
- Grade 3 (classification and statistics of the grade of pesticide damage; number of plants) [1]: 11
- Resistance evaluation [2]: non-resistant (non-resistant plants (scores 68-100))
- Classification and statistics of the grade of pesticide damage Grade 0 [3]: 0
- Classification and statistics of the grade of pesticide damage Grade 1 [3]: 1
- Classification and statistics of the grade of pesticide damage Grade 2 [3]: 4
- Classification and statistics of the grade of pesticide damage Grade 3 [3]: 11
- Resistance evaluation (isoxaflutole 280 g ai/ha): Non-resistant
- Scores (isoxaflutole 280 g ai/ha): 100
- Resistance evaluation [4]: Non-resistant
- Scores [4]: 100
- Grade 0 (classification and statistics of the grade of pesticide damage; number of plants) [4]: 0
- Grade 1 (classification and statistics of the grade of pesticide damage; number of plants) [4]: 0
- Grade 2 (classification and statistics of the grade of pesticide damage; number of plants) [4]: 0
- Grade 3 (classification and statistics of the grade of pesticide damage; number of plants) [4]: 16
- Resistance evaluation [5]: non-resistant (non-resistant plants (scores 68-100))
- Classification and statistics of the grade of pesticide damage Grade 0 [6]: 0
- Classification and statistics of the grade of pesticide damage Grade 1 [6]: 0
- Classification and statistics of the grade of pesticide damage Grade 2 [6]: 0
- Classification and statistics of the grade of pesticide damage Grade 3 [6]: 16
- Classification and statistics of the grade of pesticide damage: Grade 0 [2]: 0
- Classification and statistics of the grade of pesticide damage: Grade 1 [2]: 1
- Classification and statistics of the grade of pesticide damage: Grade 2 [2]: 4
- Classification and statistics of the grade of pesticide damage: Grade 3 [2]: 11
- Classification and statistics of the grade of pesticide damage: Grade 0 [5]: 0
- Classification and statistics of the grade of pesticide damage: Grade 1 [5]: 0
- Classification and statistics of the grade of pesticide damage: Grade 2 [5]: 0
- Classification and statistics of the grade of pesticide damage: Grade 3 [5]: 16
- Scores (pesticide damage score 0-100, isoxaflutole 140 g ai/ha (2×), 7 DAT, Table 2): 88
- Scores (pesticide damage score 0-100, isoxaflutole 280 g ai/ha (4×), 7 DAT, Table 2): 100
